Columns and labels:
[1] = target: SARS-CoV-2 S B.1.1.7 on CHO cells (SARS-CoV-2) (UniProt P0DTC2)
[2] = target: SARS-CoV-2 S B.1.351 on CHO cells (SARS-CoV-2) (UniProt P0DTC2)

LY-CoV1404 (bebtelovimab), full-length human IgG1 mAb (antibody)
VSV pseudovirus neutralisation IC50 [1]: 1 ng/mL
VSV pseudovirus neutralisation IC90 [1]: 9 ng/mL
lentiviral pseudovirus neutralisation IC50 [1]: 4 ng/mL
lentiviral pseudovirus neutralisation IC90 [1]: 11 ng/mL
VSV pseudovirus neutralisation IC50 [2]: 2 ng/mL
VSV pseudovirus neutralisation IC90 [2]: 9 ng/mL
lentiviral pseudovirus neutralisation IC50 [2]: 3 ng/mL
lentiviral pseudovirus neutralisation IC90 [2]: 9 ng/mL

From publication PMC9035363
